Consider 10 molecules from PMC3317499, “Structural Insights into TIR Domain Specificity of the Bridging Adaptor Mal in TLR4 Signaling” (PLoS ONE, 2012).

The target in data set [1] is T1, GST-MyD88-TIR (TIR domain of human MyD88, residues 148-296, GST fusion) (human, UniProt Q99836 148-296).
T1 construct: Myeloid differentiation factor 88 (MyD88), human, TIR domain residues 148-296; pGEX-6P-1 is a bacterial vector; source: E. coli (pGEX-6P-1), purified (glutathione Sepharose 4B, desalting)
As to the kind of experiment: pull-down; GST fusion protein and Myc-Mal-TIR mixed with glutathione Sepharose 4B beads, 4°C, 3 hours; washed four times with 20 mM potassium phosphate pH 6.4, 50 mM KCl, 0.1 mM EDTA, 10 mM DTT, 0.5 mM PMSF, 0.5% Triton X-100; SDS-PAGE and anti-Myc immunoblot. The conditions noted are these: both partners purified. In general terms: A western blot detects proteins with antibodies after separation by electrophoresis.

Data set [2] concerns the target T2, GST-TLR4-TIR (TIR domain of human TLR4, residues 670-839, GST fusion) (human, UniProt O00206 670-839).
T2 construct: Toll-like receptor 4 (TLR4), human, TIR domain residues 670-839; pGEX-6P-1 is a bacterial vector; source: E. coli (pGEX-6P-1), purified (glutathione Sepharose 4B, desalting)
T2 sequence (looked up): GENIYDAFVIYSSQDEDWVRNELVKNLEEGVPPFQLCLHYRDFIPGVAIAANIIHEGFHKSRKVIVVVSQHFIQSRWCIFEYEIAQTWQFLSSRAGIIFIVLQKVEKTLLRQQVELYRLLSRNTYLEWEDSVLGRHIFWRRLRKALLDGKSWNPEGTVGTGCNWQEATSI
Described as above. The conditions noted are these: both partners purified.

Data set [3] deals with T3, GST-Mal-TIR (TIR domain of human Mal, residues 79-221, GST fusion) (human, UniProt P58753 79-221).
T3 construct: MyD88 adaptor-like protein (Mal, TIRAP), human, UniProtKB P58753, TIR domain residues 79-221; pGEX-6P-1 is a bacterial vector; also called wild type Mal-TIR purified as a GST fusion protein; source: E. coli (pGEX-6P-1), purified (glutathione Sepharose 4B, desalting)
Described as above. The following applies: both partners purified.

Data set [4] concerns the molecule itself. As to the kind of experiment: crystal structure; Mal-TIR 79-221, space group P4(3)2(1)2, one molecule per asymmetric unit; dimers by crystallographic packing; 100 mM CHES pH 9.5, 150-300 mM NaCl, 10-20% glycerol, 10 mM DTT; 2.4 Å.

T1 sequence (Q99836 148-296): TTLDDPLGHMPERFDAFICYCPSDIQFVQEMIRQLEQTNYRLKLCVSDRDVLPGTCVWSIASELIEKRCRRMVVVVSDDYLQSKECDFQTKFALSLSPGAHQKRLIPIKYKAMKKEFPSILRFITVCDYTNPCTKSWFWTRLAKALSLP

B1: Myc-Mal-TIR wild type (TIR domain of human MyD88 adaptor-like protein, residues 79-221, double-tagged with His6 and Myc) (domain or fragment, UniProt P58753 79-221, looked up)
chain: SSRWSKDYDVCVCHSEEDLVAAQDLVSYLEGSTASLRCFLQLRDATPGGAIVSELCQALSSSHCRVLLITPGFLQDPWCKYQMLQALTEAPGAEGCTIPLLSGLSRAAYPPELRFMYYVDGRGPDGGFRQVKEAVMRYLQTLS
notes: MyD88 adaptor-like protein (Mal, TIRAP), human, UniProtKB P58753, TIR domain residues 79-221; it replaced the S-tag, thioredoxin and the thrombin-cleavable segment of pET32a; also called wild-type Mal-TIR; TIRAP TIR domain; source: E. coli, purified (Ni-NTA, desalting)
As to B1, the binding result in data set [1], in data set [2] and in data set [3] was “binds” in each case.

B2: Mal-TIR (residues 79-221 of human Mal), crystallised form (domain or fragment, UniProt P58753 79-221, looked up)
chain: SSRWSKDYDVCVCHSEEDLVAAQDLVSYLEGSTASLRCFLQLRDATPGGAIVSELCQALSSSHCRVLLITPGFLQDPWCKYQMLQALTEAPGAEGCTIPLLSGLSRAAYPPELRFMYYVDGRGPDGGFRQVKEAVMRYLQTLS
notes: MyD88 adaptor-like protein (Mal, TIRAP), human, UniProtKB P58753, residues 79-221; The structure has disulfide bonds C89-C134 and C142-C174 and a DTT linking Cys91 and Cys157; A selenomethionine form was used for phasing; also called wild-type Mal-TIR; TIR domain of the human Mal molecule; source: E. coli BL21 (DE3) codon plus, purified (Ni-NTA, PreScission digestion, anion exchange)
For B2, in data set [4], the binding result is “binds”.

B3: Myc-Mal-TIR D96A (domain or fragment, human, UniProt P58753 79-221, looked up)
chain: SSRWSKDYDVCVCHSEEALVAAQDLVSYLEGSTASLRCFLQLRDATPGGAIVSELCQALSSSHCRVLLITPGFLQDPWCKYQMLQALTEAPGAEGCTIPLLSGLSRAAYPPELRFMYYVDGRGPDGGFRQVKEAVMRYLQTLS
notes: Mal (TIRAP), human, UniProtKB P58753, TIR domain residues 79-221; source: E. coli, purified (Ni-NTA, desalting)
Turning to B3, the binding result in data set [1] and in data set [2] was “binds” throughout.

B4: Myc-Mal-TIR S180L (domain or fragment, human, UniProt P58753 79-221, looked up)
chain: SSRWSKDYDVCVCHSEEDLVAAQDLVSYLEGSTASLRCFLQLRDATPGGAIVSELCQALSSSHCRVLLITPGFLQDPWCKYQMLQALTEAPGAEGCTIPLLLGLSRAAYPPELRFMYYVDGRGPDGGFRQVKEAVMRYLQTLS
notes: Mal (TIRAP), human, UniProtKB P58753, TIR domain residues 79-221, natural variant S180L; also called Mal S180L; source: E. coli, purified (Ni-NTA, desalting)
On to B4, for which the binding result in data set [1] and in data set [2] was “binds” throughout.

B5: Myc-Mal-TIR D96N (domain or fragment, human, UniProt P58753 79-221, looked up)
chain: SSRWSKDYDVCVCHSEENLVAAQDLVSYLEGSTASLRCFLQLRDATPGGAIVSELCQALSSSHCRVLLITPGFLQDPWCKYQMLQALTEAPGAEGCTIPLLSGLSRAAYPPELRFMYYVDGRGPDGGFRQVKEAVMRYLQTLS
notes: Mal (TIRAP), human, UniProtKB P58753, TIR domain residues 79-221, natural variant D96N; source: E. coli, purified (Ni-NTA, desalting)
In the case of B5, the binding result in data set [1] was “binds”.

B6: Myc-Mal-TIR F117A (domain or fragment, human, UniProt P58753 79-221, looked up)
chain: SSRWSKDYDVCVCHSEEDLVAAQDLVSYLEGSTASLRCALQLRDATPGGAIVSELCQALSSSHCRVLLITPGFLQDPWCKYQMLQALTEAPGAEGCTIPLLSGLSRAAYPPELRFMYYVDGRGPDGGFRQVKEAVMRYLQTLS
notes: as for B3
In the case of B6, the binding result in data set [1] is on record as “binds”.

B7: Myc-Mal-TIR R192A (domain or fragment, human, UniProt P58753 79-221, looked up)
chain: SSRWSKDYDVCVCHSEEDLVAAQDLVSYLEGSTASLRCFLQLRDATPGGAIVSELCQALSSSHCRVLLITPGFLQDPWCKYQMLQALTEAPGAEGCTIPLLSGLSRAAYPPELAFMYYVDGRGPDGGFRQVKEAVMRYLQTLS
notes: as for B3
B7: in data set [3], the binding result is recorded as “binds”.

B8: Myc-Mal-TIR E108A (domain or fragment, human, UniProt P58753 79-221, looked up)
chain: SSRWSKDYDVCVCHSEEDLVAAQDLVSYLAGSTASLRCFLQLRDATPGGAIVSELCQALSSSHCRVLLITPGFLQDPWCKYQMLQALTEAPGAEGCTIPLLSGLSRAAYPPELRFMYYVDGRGPDGGFRQVKEAVMRYLQTLS
notes: as for B3
Turning to B8, the binding result in data set [1] is on record as “binds”.

B9: Myc-Mal-TIR L165A (domain or fragment, human, UniProt P58753 79-221, looked up)
chain: SSRWSKDYDVCVCHSEEDLVAAQDLVSYLEGSTASLRCFLQLRDATPGGAIVSELCQALSSSHCRVLLITPGFLQDPWCKYQMLQAATEAPGAEGCTIPLLSGLSRAAYPPELRFMYYVDGRGPDGGFRQVKEAVMRYLQTLS
notes: as for B3
As for B9, in data set [1], the binding result is listed as “binds”.

B10: Myc-Mal-TIR D87A (domain or fragment, human, UniProt P58753 79-221, looked up)
chain: SSRWSKDYAVCVCHSEEDLVAAQDLVSYLEGSTASLRCFLQLRDATPGGAIVSELCQALSSSHCRVLLITPGFLQDPWCKYQMLQALTEAPGAEGCTIPLLSGLSRAAYPPELRFMYYVDGRGPDGGFRQVKEAVMRYLQTLS
notes: as for B3
In the case of B10, the binding result in data set [3] is “binds”.
